Data reported in article PMC3796444 (PLoS ONE, 2013).

What was measured:
[1] = biological target: Hsc70 chaperones of the rabbit reticulocyte lysate (rabbit (endogenous in rabbit reticulocyte lysate)); assay: co-IP; AGT variants made with 35S-Met in rabbit reticulocyte lysate (TnT) at 30°C for 2 h, stopped with cycloheximide; immunoprecipitation with anti-Hsc70 antibodies; SDS-PAGE and fluorography
[2] = biological target: the molecule itself; assay: SEC; purified recombinant AGT variants; single peak, elution volume of a ≈90 kDa dimer; data not shown
[3] = substrate: O=CC(=O)O; assay: LDH-coupled pyruvate assay, global double-displacement fit; assay type: biochemical, Homo sapiens; conditions: L-alanine 0-100 mM, 150 µM PLP, 0.1 M Na-phosphate pH 8, 25°C
Text: (§1) LDH-coupled pyruvate assay, global double-displacement fit on alanine:glyoxylate aminotransferase (AGT), AGT WT (major allele)

[4] = substrate: C[C@H](N)C(=O)O; assay: as above; assay type: biochemical, Homo sapiens; conditions: glyoxylate 0-5 mM, 150 µM PLP, 0.1 M Na-phosphate pH 8, 25°C
Text: as §1

| Molecule | fold increase in immunoprecipitated AGT compared to WT [1] | stoichiometry N [2] | further results |
| --- | --- | --- | --- |
| alanine:glyoxylate aminotransferase minor allele (p.P11L/I340M), made in a cell-free system (from UniProt P21549 1-392) (enzyme) | 4 fold | – | – |
| alanine:glyoxylate aminotransferase p.H83R on the minor allele, made in a cell-free system (from UniProt P21549 1-392) (enzyme) | 4.8 fold | – | – |
| alanine:glyoxylate aminotransferase p.P11L, made in a cell-free system (from UniProt P21549 1-392) (enzyme) | 4 fold | – | – |
| alanine:glyoxylate aminotransferase p.P319L on the minor allele, made in a cell-free system (from UniProt P21549 1-392) (enzyme) | 7 fold | – | – |
| alanine:glyoxylate aminotransferase p.I340M, recombinant His-tagged (enzyme, human, alanine:glyoxylate aminotransferase (AGT), human, polymorphic variant p.I340M; Crystallised here (PDB 2YOB); source: E. coli BL21 (pCOLDII), purified (IMAC, SEC)) MASHKLLVTPPKALLKPLSIPNQLLLGPGPSNLPPRIMAAGGLQMIGSMSKDMYQIMDEIKEGIQYVFQTRNPLTLVISGSGHCALEAALVNVLEPGDSFLVGANGIWGQRAVDIGERIGARVHPMTKDPGGHYTLQEVEEGLAQHKPVLLFLTHGESSTGVLQPLDGFGELCHRYKCLLLVDSVASLGGTPLYMDRQGIDILYSGSQKALNAPPGTSLISFSDKAKKKMYSRKTKPFSFYLDIKWLANFWGCDDQPRMYHHTIPVISLYSLRESLALIAEQGLENSWRQHREAAAYLHGRLQALGLQLFVKDPALRLPTVTTVAVPAGYDWRDIVSYVMDHFDIEIMGGLGPSTGKVLRIGLLGCNATRENVDRVTEALRAAL | – | 2 | – |
| alanine:glyoxylate aminotransferase, wild type (major allele), recombinant His-tagged (enzyme, human, alanine:glyoxylate aminotransferase (AGT), human, major allele; also called AGT WT; WT; source: E. coli BL21 (pCOLDII), purified (IMAC, SEC)) MASHKLLVTPPKALLKPLSIPNQLLLGPGPSNLPPRIMAAGGLQMIGSMSKDMYQIMDEIKEGIQYVFQTRNPLTLVISGSGHCALEAALVNVLEPGDSFLVGANGIWGQRAVDIGERIGARVHPMTKDPGGHYTLQEVEEGLAQHKPVLLFLTHGESSTGVLQPLDGFGELCHRYKCLLLVDSVASLGGTPLYMDRQGIDILYSGSQKALNAPPGTSLISFSDKAKKKMYSRKTKPFSFYLDIKWLANFWGCDDQPRMYHHTIPVISLYSLRESLALIAEQGLENSWRQHREAAAYLHGRLQALGLQLFVKDPALRLPTVTTVAVPAGYDWRDIVSYVIDHFDIEIMGGLGPSTGKVLRIGLLGCNATRENVDRVTEALRAALQHCPKKKL | – | 2 | Km [3]: 0.245 ± 0.029 mM; Km [4]: 19.5 ± 1.4 mM |
| alanine:glyoxylate aminotransferase p.I244T on the minor allele, recombinant His-tagged (enzyme, human, UniProt P21549 1-392, looked up, alanine:glyoxylate aminotransferase (AGT), human, PH1 mutation p.I244T in the minor allele (p.P11L, p.I244T and p.I340M in cis); source: E. coli BL21 (pCOLDII), purified (IMAC, SEC)) MASHKLLVTPLKALLKPLSIPNQLLLGPGPSNLPPRIMAAGGLQMIGSMSKDMYQIMDEIKEGIQYVFQTRNPLTLVISGSGHCALEAALVNVLEPGDSFLVGANGIWGQRAVDIGERIGARVHPMTKDPGGHYTLQEVEEGLAQHKPVLLFLTHGESSTGVLQPLDGFGELCHRYKCLLLVDSVASLGGTPLYMDRQGIDILYSGSQKALNAPPGTSLISFSDKAKKKMYSRKTKPFSFYLDTKWLANFWGCDDQPRMYHHTIPVISLYSLRESLALIAEQGLENSWRQHREAAAYLHGRLQALGLQLFVKDPALRLPTVTTVAVPAGYDWRDIVSYVMDHFDIEIMGGLGPSTGKVLRIGLLGCNATRENVDRVTEALRAALQHCPKKKL | – | 2 | – |
| alanine:glyoxylate aminotransferase p.P319L on the minor allele, recombinant His-tagged (enzyme, human, UniProt P21549 1-392, looked up, alanine:glyoxylate aminotransferase (AGT), human, PH1 mutation p.P319L in the minor allele; source: E. coli BL21 (pCOLDII), purified (IMAC, SEC)) MASHKLLVTPLKALLKPLSIPNQLLLGPGPSNLPPRIMAAGGLQMIGSMSKDMYQIMDEIKEGIQYVFQTRNPLTLVISGSGHCALEAALVNVLEPGDSFLVGANGIWGQRAVDIGERIGARVHPMTKDPGGHYTLQEVEEGLAQHKPVLLFLTHGESSTGVLQPLDGFGELCHRYKCLLLVDSVASLGGTPLYMDRQGIDILYSGSQKALNAPPGTSLISFSDKAKKKMYSRKTKPFSFYLDIKWLANFWGCDDQPRMYHHTIPVISLYSLRESLALIAEQGLENSWRQHREAAAYLHGRLQALGLQLFVKDPALRLLTVTTVAVPAGYDWRDIVSYVMDHFDIEIMGGLGPSTGKVLRIGLLGCNATRENVDRVTEALRAALQHCPKKKL | – | 2 | – |
